In paper PMC5609902 (2017):

B1: JRFL rgp120 (natural protein)
chain: not shown

Key:
Test in all cases: SPR
[1] = molecular target: VRC01
[2] = molecular target: b12
[3] = molecular target: CN54 rgp120 (HIV-1 CN54 (CRF07_BC))
[4] = molecular target: B1

Binder	Kd [1] [nM]	koff [1] [s⁻¹]	Kd [2] [nM]	koff [2] [s⁻¹]	koff [3] [s⁻¹]	koff [4] [s⁻¹]
B1	5.35	0.000167	1.11	0.000567		
Y498 IgG1 (antibody, V domains shown) VH: KVQLVQSGTELKKPGASGKVSCKASGYTFNSNGLNWVRQAPGQGLEWVGWISGHSDETKHAQNFQGRLTLTTDTSTNTAYMELRSLRSDDTAVYYCARSLLRSLERLMGGTDAFDIWGQGTLVTVSS VL: not shown					2.3e-05	0.000105
